# Assay results taken from publication PMC4824412.
# Where “and” joins values, the source holds several entries; their conditions need not be identical. Identical values can stand only once.
# Columns and labels:
# [1] = biological target: GARPTS, soluble tail switch mutant of human GARP (glycoprotein A repetitions predominant) (human) (UniProt Q14392)
# [2] = biological target: GARPTS, soluble tail switch mutant of human GARP (glycoprotein A repetitions predominant) (human) (UniProt Q14392); assay: non-reducing SDS-PAGE and western blot of disulfide-linked complexes; GARPTS (300 ng) and a mixture of pro-TGFβ and latent TGFβ (600 ng) incubated overnight at RT in redox buffer (oxidized glutathione and 2 mM free cysteine), no pull-down; 10% gel, non-reducing; anti-Strep-tag or anti-His-tag antibodies
proliferation of Mv1Lu cells with a constant 60 ng/ml latent TGFβ pre-incubated with 10-40 ng/ml GARPTS; value at approximately 40 ng/ml (0.5 nM) GARPTS [1] [%],stoichiometry N (GARP per TGFβ) [2],Substance
< 60,2 and 1,recombinant latent TGFβ (furin-cleaved pro-TGFβ; LAP non-covalently bound to the mature cytokine) (complex)
,2 and 1,recombinant pro-TGFβ (not cleaved by furin) (natural protein)
